T1: human mature myostatin (dimeric form) (human, UniProt O14793 267-375)
T1 sequence: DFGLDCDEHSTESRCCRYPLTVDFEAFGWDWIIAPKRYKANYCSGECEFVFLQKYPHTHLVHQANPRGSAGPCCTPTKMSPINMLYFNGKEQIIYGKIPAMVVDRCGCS

T2: recombinant human GDF-11 (human, UniProt O95390 299-407)
T2 sequence (looked up): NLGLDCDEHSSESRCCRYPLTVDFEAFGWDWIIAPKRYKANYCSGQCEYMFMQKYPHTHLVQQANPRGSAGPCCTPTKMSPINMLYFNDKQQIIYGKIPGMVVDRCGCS


Key:
[1] = target: T1, human mature myostatin (dimeric form); assay: cell-based or functional assay
[2] = target: T2, recombinant human GDF-11; assay: cell-based or functional assay
[3] = target: T1, human mature myostatin (dimeric form); assay: KINEXA equilibrium assay, antibody and myostatin in solution, room temperature
Procedure: (§1) Binding affinity measurements for full-length monoclonal antibodies of the invention are determined using a Sapidyne KINEXA assay. NHS-activated fast-flow sepharose beads (GE Healthcare) are pre-coated with […] and blocked with 10 mg/ml BSA in 1 M Tris-HCl, pH 8.0. Then 2 pM, 4 pM, 40 pM of an antibody of the invention (e.g., 3-74/C1E4) is incubated with various concentration (e.g., 2.4 pM to 10 nM, serial dilutions) of myostatin in running buffer (PBS, 0.005% (v/v) Tween-20 and 1 mg/ml ovalbumin) for 10 hours at room temperature. To determine the free antibody present at equilibrium, each sample is passed through the myostatin-coated beads. The amount of bead-bound antibody is then quantified by passing a solution of fluorescent (Cy5) labeled goat ant-human Fc antibody (Jackson Immuno Research) diluted 1:4000 in running buffer over the beads. The measured fluorescence signal is proportional to the concentration of free antibody at equilibrium. Each concentration of myostatin is measured in duplicate. The equilibrium dissociation constant (KD) is obtained from non-linear regression of the competition curves using a multiple-curve, one-site homogeneous binding model (KINEXA software).

[4] = target: T1, human mature myostatin (dimeric form); assay: KINEXA kinetic assay, 2 pM antibody mixed with 20 pM GDF-8
Procedure: as §1, with “To determine the free antibody present at equilibrium, each sample is passed through the myostatin-coated beads.” left out, “The equilibrium dissociation constant (KD) is obtained from non-linear regression of the competition curves using a multiple-curve, one-site homogeneous binding model (KINEXA software).” left out
(§2) The association rate constant (kₒₙ) for GDF-8 binding is also determined using a Sapidyne KINEXA assay. […] The dissociation rate constant (koff) is calculated using the expression koff=KD×kₒₙ. Full-length monoclonal antibody 3-74/C1E4 (operably linked to an IgG₄ Fc region) was measured using the described assay, the results obtained are listed below in Table 3.

[5] = target: T1, human mature myostatin (dimeric form); assay: KINEXA, calculated as KD x kon
Procedure: as §1, with “To determine the free antibody present at equilibrium, each sample is passed through the myostatin-coated beads.” left out, “The equilibrium dissociation constant (KD) is obtained from non-linear regression of the competition curves using a multiple-curve, one-site homogeneous binding model (KINEXA software).” left out
as §2

IC50 GDF8 (myostatin/SBE luciferase reporter assay, 293E cells) [1] | IC50 GDF11 (GDF-11/SBE luciferase reporter assay, 293E cells) [2] | Kd [3] | kon [4] | koff [5] | Binder
1 nM | 4 nM | – | – | – | Fab 3-74/C1E4 (Fab, V domains shown) VH: EVQLVESGGGLVQPGGSLRLSCAASGLTFSRYPMSWVRQAPGKGLEWVSAITSSGGSTYYSDTVKGRFTISRDNAKNTLYLQMNSLRAEDTAVYYCARLPDYWGQGTLVTVSS VL: EIVLTQSPGTLSLSPGERATLSCRASSSVSSSYLHWYAAKPGQAPRLLIYSTSNLVAGIPDRFSGSGSGTDFTLTISRLEPEDFAVYYCQHYSGYHFTFGGGTKVEIK
– | – | 0.00139 nM | 1.49e+06 M⁻¹ s⁻¹ | 2.08e-06 s⁻¹ | Full-length monoclonal antibody 3-74/C1E4 (operably linked to an IgG4 Fc region) (antibody, V domains shown, also called Mab 3-74/C1E4) VH: EVQLVESGGGLVQPGGSLRLSCAASGLTFSRYPMSWVRQAPGKGLEWVSAITSSGGSTYYSDTVKGRFTISRDNAKNTLYLQMNSLRAEDTAVYYCARLPDYWGQGTLVTVSS VL: EIVLTQSPGTLSLSPGERATLSCRASSSVSSSYLHWYAAKPGQAPRLLIYSTSNLVAGIPDRFSGSGSGTDFTLTISRLEPEDFAVYYCQHYSGYHFTFGGGTKVEIK

From patent US20090131638A1 (Eli Lilly, published 2009)
